Tests used:
[1] = biological target: free Acinetobacter baumannii 118362 cysteine desulfurase (construct RB30, C-terminally His6-tagged, tag removed) (Acinetobacter baumannii 118362); assay: SEC
[2] = biological target: degraded free cysteine desulfurase that has lost the N-terminal CLD (Acinetobacter baumannii 118362); assay: SEC
[3] = biological target: Acinetobacter baumannii 118362 Family 2A encapsulin shell protein (J517_0527) (Acinetobacter baumannii 118362); assay: cryo-EM structure

## free Acinetobacter baumannii 118362 cysteine desulfurase (construct RB30, C-terminally His6-tagged, tag removed) (enzyme)
[1]
  stoichiometry N: 2

## degraded free cysteine desulfurase that has lost the N-terminal CLD (domain or fragment)
[2]
  stoichiometry N: 2

## Acinetobacter baumannii 118362 cysteine desulfurase (J517_0528), co-expressed from the four-gene operon (enzyme)
[3]
  stoichiometry N (CD cargo proteins per encapsulin shell): < 24

## Acinetobacter baumannii 118362 Family 2A encapsulin shell protein (J517_0527) (natural protein)
[3]
  stoichiometry N: 60 subunits
